Molecular target: T1, GFP-rev-p53 biosensor
T1 construct: also called rev-p53-GFP; NLS-p53-GFP construct
Assay: co-localization of fluorescent biosensor components co-expressed in U2OS cells

B1: TagGFP-NES/NLS-HDM2 biosensor (other)
chain: MVSKGEELIKENMHMKLYMEGTVNNHHFKCTSEGEGKPYEGTQTMRIKVVEGGPLPFAFDILATSFMYGSRTFINHTQGIPDFFKQSFPEGFTWERVTTYEDGGVLTATQDTSLQDGCLIYNVKIRGVNFPSNGPVMQKKTLGWEANTEMLYPADGGLEGRSDMALKLVGGGHLICNFKTTYRSKKPAKNLKMPGVYYVDHRLERIKEADKETYVEQHEVAVARYCDLPSKLGHKLNSGLRSRAQASNSPQTPLHTSRVLKEDKERWEDVKEEMTSALATMCVDYEQIKIKKIEDASNPLLLKRRKKLEMCNTNMSVPTDGAVTTSQIPASEQETLVRPKPLLLKLLKSVGAQKDTYTMKEVLFYLGQYIMTKRLYDEKQQHIVYCSNDLLGDLFGVPSFSVKEHRKIYTMIYRNLVVVNQQESSDS
notes: also called NES/NLS-HDM2-RFP; shuttling component
Q: Does B1 bind?
A: binds
